According to the DeepSol protein solubility set:

Assay: soluble on expression in E. coli; label from the status in PepcDB or PDB records
For “MSLQIQGQIVDIENKRIYSGEITIQNGKIISIIEKNHEVKNYILPGFIDAHIHIESSMLVPSEFAKIAVLHGTVATISDPHEIANVLGKKGVYYMIENGKQVPLKFHFGAPSCVPATAFETAGAIIDSEEIKELMASPDIYYLSEMMNYPGVLFDDDEVLKKIAWAKHFNKPIDGHAPGLRGEPIKKYISAGITTDHECFTYSEAQEKLSLGMKVIIREGSAAKNFEALIDLLPANYENMMFCSDDKHPDDLILGHINLLCARAVAKGIDVFKILQVACVNPVHHYKMKVGLLKKNDAADFIVVEDLVNFKVNKTYINGELVAENGQSFVENINFETPNNFNITKKKISDFEIPSLAEKIRVIEALEGQLITNEIHHNSFIKNGKLVSDIENDILKMAVVNRYQNTTPAIAFIKNFGLKKGAIASSVAHDCHNIVVVGTSDEEICNAVNLIIKNTGGICAVNGTQNKSLALPVAGIMSDKDAWETGKLYQEIDAMAKDLGSTLKAPFMTLSFMALLVIPDLKLSDKGLFSGNTFSFVDLNVEEGHHHHHH”, the “soluble on expression in E. coli” value was “soluble”.
For “MSLQNIRFGECINSPYVKPKRVFYTERGIEKSWDVVEAHDSVSVLLFDPKKRAFVLVKQFRPAVFLKGTSGYTYELCAGIVDKPGKSLEVIAQEEILEECGYSLSIDSLERITSFYTSVGFAGSRQTLFYAEVEDSLRQGEGGGVESENIEVVHLPLLEARAFMLDEERPKTPGLLFAFMWFFERHPKNEGHHHHHH”, the “soluble on expression in E. coli” value was “soluble”.
In the case of “MSLQPHLICLDLDGTLLNDNKEISSYTKQVLNELQQRGHQIMIATGRPYRASQMYYHELNLTTPIVNFNGAYVHHPKDKNFKTCHEILDLGIAQNIIQGLQQYQVSNIIAEVKDYVFINNHDPRLFEGFSMGNPRIQTGNLLVHLKESPTSILIEAEESKIPEIKNMLTHFYADHIEHRRWGAPFPVIEIVKLGINKARGIEQVRQFLNIDRNNIIAFGDEDNDIEMIEYARHGVAMENGLQELKDVANNITFNNNEDGIGRYLNDFFNLNIRYYEGHHHHHH”, the “soluble on expression in E. coli” value is reported as “soluble”.
For “MSLQPNDITFFQRFQNDILAGRKTITIRDASESHFKAGDVLRVGRFEDDGYFCTIEVTGTSTVTLDTLNEKHAQQENMSLDELKRVIAEIYPNQTQFYVIDFKCLEGHHHHHH”, the “soluble on expression in E. coli” value was “soluble”.
In the case of “MSLQPPFSILFVDDDEMSRNHFARAMSADYKVYVAQSADEAITVLGKHASEIAVLVTDFRMPGRDGDELLREVAHEYPQIVRILVTAYADKDMLLQTVNTGDVFRIIEKPLRTDMVREVLHLATARYTERETRQQRLLAMDETLAFLAHELNTPLATISLFARSVENDVAEQYDPERQREIGLAAKSMLNNAQYCLTLISSFWATVHKSGGQKSASGGGTRAVRATRLIATLLDTYPFVASQRDWVKVDVEGDFVVHAMPNCVALVLSSLLSNALRALDGGSAPVLRLEVVAFPEPEIRIRDNGPGIAPEVKARLLQDPVTTYAGAGGHGMGMIFCNRIMQSFGGCLRIESTVGAGTTVTMGFPGFNSRMHSADEGHHHHHH”, the “soluble on expression in E. coli” value is reported as “soluble”.
With “MSLQQGINKPIFQQAKLFRYQLPFKIPIVFKGIKLTAREGVILQVQNDKGEFNFAEIAPLPGFSKETLQQATAQIIALLNTPPLNSQSDILLYPSVAFALDCILHNIPISELFKTAESIPLLQGDNHSVLKQYLQMNKPNSVKLKIGRQSVAKDITLFSALSALNNNLLIRCDANQSWTFAQADLFFANINTQLIDYIEEPTASLSDNINLAERYEVQLALDETLQQKQFQYQHHRCFKALILKPTLIGSFERLNYFIKTAKKFHLSVSISSSFESPLGLSQLAFMASQWSKEVDISCGLDTLKFFESAILNKNSDKKLDNKTPINQQVKHLECLWTSNEGHHHHHH” the “soluble on expression in E. coli” value was “soluble”.
For “MSLQQYEILLDSGTNELEIVKFGVGENAFGINVMKVREIIQPVEVTSVPHSHQHVEGMIKLRGEILPVISLFSFFGVEPEGSKDEKYIVTEFNKRKIVFHVGSVSQIHRVSWEAIEKPTSLNQGMERHLTGIIKLEDLMIFLPDYEKIIYDIESDSGVDTYNMHTEGFDERRTDKKLIIVEDSPLLMRLLQDELKEAGYNNIASFENGKEAYEYIMNLAENETDLSKQIDMIITDIEMPKMDGHRLTKLLKENPKSSDVPVMIFSSLITDDLRHRGEVVGADEQISKPEISDLIKKVDTYVIEGHHHHHH”, the “soluble on expression in E. coli” value was “soluble”.
With “MSLQSADESTFDRIRRTKKLRIGAVAGGAPYYNKDLATGQWKGFYIDISKALADELECQLEITETTWGNSVLDLQANKIDIFFGLNPTPKRALVVDFSVPVFSNAFTMLTRKDFAPKTWAELNDPNVKIAVDVGSSHDQVVSRLCPKAQIVRLKTADEATMALVSGRVDAQCIILMLALTVRKKNPNVGQLLVPTPVFSTTSNAGFRRENDKTWRDYVNTWIEYNKGLGFIRSAIVTNMELVGVTEADMPAGIQEGHHHHHH” the “soluble on expression in E. coli” value was “soluble”.
With “MSLQSSEAIDTEPKTISPVPEGRPVLVLDLDETCIYSTPAKPEKQQNFPIRIKRRNVFIQVRPGMQECIRRLSEKYEIFFYTASTKIYANKVIDAIAPFVDNEHRFFVSRDQLKDLTLINRPLGKVLLLDNSACSAQKNNLLLIKTWIGDPNDNAFTNEVMPLLDNLVKESDIPSACRNLVSSRRYPSLYVIRSEGHHHHHH” the “soluble on expression in E. coli” value was “soluble”.
With “MSLQTKHIDDLKEALMCQRNNDDKLEDLVGKIVNDYHTYAGKRSELSYRCCAHYFAPSWNTPIENSMLWMGGCRPSSFIRLIYALCGSQAETQLSQYLLKIDDDFDINHGGFMSDLTATQLGKLNDLHLEVIKKEDKITKTSANFQDDVADLPIADVVHADVAVEDALDKHEEGMAVLLAEADKLRFETLRKIVDVVTPLQAVEFLLAGKRLQLSLHDRGRVRADVCGGVGGAAV” the “soluble on expression in E. coli” value was “soluble”.
With “MSLQTLSIQHGTLVTMDQYRRVLGDSWVHVQDGRIVALGVHAESVPPPADRVIDARGKVVLPGFINAHTHVNQILLRGGPSHGRQLYDWLFNVLYPGQKAMRPEDVAVAVRLYCAEAVRSGITTINDNADSAIYPGNIEAAMAVYGEVGVRVVYARMFFDRMDGRIQGYVDALKARSPQVELCSIMEETAVAKDRITALSDQYHGTAGGRISVWPAPAITPAVTVEGMRWAQAFARDRAVMWTLHMAESDHDERLHWMSPAEYMECYGLLDERLQVAHCVYFDRKDVRLLHRHNVKVASQVVSNAYLGSGVAPVPEMVERGMAVGIGTDDGNCNDSVNMIGDMKFMAHIHRAVHRDADVLTPEKILEMATIDGARSLGMDHEIGSIETGKRADLILLDLRHPQTTPHHHLAATIVFQAYGNEVDTVLIDGNVVMENRRLSFLPPERELAFLEEAQSRATAILQRANMVANPAWRSLEGHHHHHH” the “soluble on expression in E. coli” value was “soluble”.
With “MSLQWECWPSLPCWRCFAASGRITLSIKRFTQNSRRHDMKITKINAIPLSYRLPEGKTVTMGVGSTIKRDAIIIRVETSEGITGYGEAHPGRSPGAITSLIHNTIAPMLIGMKATDCVGAWQRVHRMQLSSHGLGAGAALAISGIDMALWDIRGKAANMPLYELLGGSKRRIPAYAGGIALGYQPKESLAEEAQEYIARGYKALKLRIGDAARVDIERVRHVRKVLGDEVDILTDANTAYTMADARRVLPVLAEIQAGWLEEPFACNDFASYREVAKITPLVPIAAGENHYTRFEFGQMLDAGAVQVWQPDLSKCGGITEGIRIAAMASAYRIPINAHSSATGLNHAATIHFLAATENAGYFEACVSKFNPFRDMFGTSFEIGADGCVEPPDAPGLGIEVDESIFEKYPAVDGPGYVVKFEGHHHHHH” the “soluble on expression in E. coli” value was “soluble”.
In the case of “MSLRATWGDVRQGLWMSLTRAGLLHLNADPDPKNWRPHILVLSGAPRRRWPVIELASALTHNQALMTVGTVLRPSEASDFEAQREAEATLREYLGSRGVQSLVRTTTAEDPFAGGERLIEDYGLGVLKPNTIMLGHTEDPTHHEQFCTLIKHLYAARRNVAVLRGGNQGFGNRERIDVWWSGLKGNGGLMKILAYLLQTNLEWQNAQVRVNVVADDDEEAEEQRQTVGPILDQLRTGAALNVIEADGRIFDEIVHDASADADIVFLGMATPDEEGDYVTYYTRLHERTAGLPPTVFVLAAEEISFRDVLALEHHHHHH”, the “soluble on expression in E. coli” value is reported as “not soluble”.
For “MSLRETLKTIAETLNVTHTTVSNVFNRPEKVSPELREKILAYAESINYHGPAGAGRFLRTGKCGTLGVIFNDNLSYVFSDRHDIALMRGIAEECEKNGINIALMPLKTNNALKKRMMGALVDGYILNATYNNDEVVQAALTSGLPVITTDIKLQNFTCVSIDDGAAMQAICHHLLAAGHKKFGIVSFPVKRLPGELTSLAEFSTDYDNGVAFGRISACITALSDAGIDLHTSYVAEQPHSETGGEKAAKALLAKEPGISAIICLSDRFAFGVYQFCQDHNIPVPGQIAITGFDDIDIQDPPVGLTTIRQPTVLKGREAARALISGQLDNDISLDFELVVRDSAEGHHHHHH”, the “soluble on expression in E. coli” value was “soluble”.
